Source: US20140030270A1

B1: 21B12 IgG4 (21B12, anti-PCSK9 huIgG4) (antibody, V domains shown)
VH: QVQLVQSGAEVKKPGASVKVSCKASGYTLTSYGISWVRQAPGQGLEWMGWVSFYNGNTNYAQKLQGRGTMTTDPSTSTAYMELRSLRSDDTAVYYCARGYGMDVWGQGTTVTVSS
VL: QSALTQPASVSGSPGQSITISCTGTSSDVGGYNSVSWYQQHPGKAPKLMIYEVSNRPSGVSNRFSGSKSGNTASLTISGLQAEDEADYYCNSYTSTSMVFGGGTKLTVLQ
B2: 16F12 IgG4 (16F12, anti-PCSK9 huIgG4) (antibody, V domains shown)
VH: QVHLVESGGGVVQPGRSLRLSCAASGFTFNSFGMHWVRQAPGKGLEWVALIWSDGSDEYYADSVKGRFTISRDNSKNTLYLQMNSLRAEDTAVYYCARAIAALYYYYGMDVWGQGTTVTVSS
VL: QSVLTQPPSVSAAPGQKVTISCSGSSSNIGNNFVSWYQQLPGTAPKLLIYDYNKRPSGIPDRFSGSKSGTSATLGITGLQTGDEADYYCGTWDSSLSAYVFGTGTRVTVLQ

Legend:
[1] = target: cynomolgus monkey PCSK9, V5-6xHIS tagged (cynomolgus monkey); test: Biacore solution equilibrium assay, free PCSK9 measured on immobilised 21B12
[2] = target: cynomolgus monkey PCSK9, V5-6xHIS tagged (cynomolgus monkey); test: SPR (Biacore 2000), antibody amine-coupled to the chip, PCSK9 as analyte, pH 7.4
[3] = target: cynomolgus monkey PCSK9, V5-6xHIS tagged (cynomolgus monkey); test: KinExA solution equilibrium, PCSK9-coated beads; cyno PCSK9

| Binder | Kd [1] [nM] | Kd [2] [nM] | Kd [3] [nM] |
| --- | --- | --- | --- |
| B1 | 0.011 | 0.36 | – |
| B2 | – | 0.87 | 0.016 |
